Data from patent US20260092093A1 (TJ BIOPHARMA SHANGHAI, published 2026).
Where a chain is given by its changes, count along the chain named.

Legend:
Experiment in all cases: cell-based or functional assay
[1] = molecular target: T1, hIL-18 receptor (hIL-18Rα and hIL-18Rβ) (human, UniProt Q13478 19-541; O95256 20-599)
T1 sequence (looked up) 1: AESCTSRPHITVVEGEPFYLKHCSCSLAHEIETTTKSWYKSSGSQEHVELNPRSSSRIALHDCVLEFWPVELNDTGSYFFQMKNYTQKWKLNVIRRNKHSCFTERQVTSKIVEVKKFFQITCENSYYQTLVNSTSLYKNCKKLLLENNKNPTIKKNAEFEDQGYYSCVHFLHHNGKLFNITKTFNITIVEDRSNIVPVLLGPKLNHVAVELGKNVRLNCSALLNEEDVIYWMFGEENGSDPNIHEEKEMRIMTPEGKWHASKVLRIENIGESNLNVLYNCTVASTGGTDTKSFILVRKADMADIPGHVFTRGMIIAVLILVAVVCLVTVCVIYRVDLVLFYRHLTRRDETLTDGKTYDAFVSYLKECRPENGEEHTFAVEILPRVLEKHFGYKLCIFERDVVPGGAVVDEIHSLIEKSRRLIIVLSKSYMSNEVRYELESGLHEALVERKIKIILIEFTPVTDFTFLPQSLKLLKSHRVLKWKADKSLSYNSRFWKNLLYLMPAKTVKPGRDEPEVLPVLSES
T1 sequence (looked up) 2: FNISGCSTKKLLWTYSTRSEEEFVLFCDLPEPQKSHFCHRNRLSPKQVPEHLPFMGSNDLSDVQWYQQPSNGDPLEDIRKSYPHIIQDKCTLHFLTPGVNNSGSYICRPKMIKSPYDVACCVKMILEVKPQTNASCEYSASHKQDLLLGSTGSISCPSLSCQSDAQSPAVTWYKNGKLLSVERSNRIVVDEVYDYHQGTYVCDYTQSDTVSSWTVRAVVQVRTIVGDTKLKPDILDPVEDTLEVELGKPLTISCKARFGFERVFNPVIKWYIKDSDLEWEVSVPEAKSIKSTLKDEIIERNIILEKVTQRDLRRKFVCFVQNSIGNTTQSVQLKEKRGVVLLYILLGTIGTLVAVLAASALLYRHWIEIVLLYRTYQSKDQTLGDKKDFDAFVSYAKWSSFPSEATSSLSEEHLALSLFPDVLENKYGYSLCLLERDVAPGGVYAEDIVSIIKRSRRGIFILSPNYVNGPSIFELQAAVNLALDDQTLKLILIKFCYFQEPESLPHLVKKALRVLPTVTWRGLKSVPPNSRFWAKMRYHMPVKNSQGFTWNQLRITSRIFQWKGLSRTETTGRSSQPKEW

[2] = molecular target: T2, hIL-18BP-hFc (human, UniProt O95998 31-194, limits assumed)
T2 sequence (looked up): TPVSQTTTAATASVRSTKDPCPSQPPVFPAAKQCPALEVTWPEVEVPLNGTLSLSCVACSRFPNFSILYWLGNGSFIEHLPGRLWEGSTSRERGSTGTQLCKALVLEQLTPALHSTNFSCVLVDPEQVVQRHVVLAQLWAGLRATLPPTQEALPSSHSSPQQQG

[3] = molecular target: T1, hIL-18 receptor (hIL-18Rα and hIL-18Rβ); remark: listed apart in the source
[4] = molecular target: T2, hIL-18BP-hFc; remark: listed apart in the source

B1: IL-18 variant polypeptide M29 (ligand)
chain: YFPKLMSKLSVIRNLNDQVLFIDQGNRPLFEDMTDSDCRDNAPRTIFIISMYKFSDRRGMAVTISVKCEKISTLSCENKIISFKEMNPPDPIKDTKSDIIFFQRSVPGHDNKMQFESSSYEGYFLACEKERDLFKLILKKEDELGDRSIMFTVQNED
- EC50 (nM), hIL-18 reporter assay [1]: 4.8 nM
- EC50 (nM) in the Presence of 1 µg/mL hIL-18BP-hFc, hIL-18 reporter assay [2]: 1.9 nM
- EC50 Fold Change (+BP/-BP), hIL-18 reporter assay [2]: 0.4 fold
- EC50 (nM), PBMC assay (hIFNγ release) [3]: 0.14 nM
- EC50 (nM) in the Presence of 1 µg/mL hIL-18BP-hFc, PBMC assay (hIFNγ release) [4]: 0.096 nM
- EC50 Fold Change (+BP/-BP), PBMC assay (hIFNγ release) [4]: 0.69 fold

B2: IL-18 variant polypeptide WM2 (ligand)
chain: B1 chain with M6R, F54D, D56Q, R57P, P91N, K96E
- EC50 (nM), hIL-18 reporter assay [1]: 10.7 nM
- EC50 (nM) in the Presence of 1 µg/mL hIL-18BP-hFc, hIL-18 reporter assay [2]: 14.2 nM
- EC50 Fold Change (+BP/-BP), hIL-18 reporter assay [2]: 1.32 fold

B3: IL-18 variant polypeptide M3 (ligand)
chain: B1 chain with M6K, F54W, D56H, R57V, P91A, R104Y
- EC50 (nM), hIL-18 reporter assay [1]: 0.24 nM
- EC50 (nM) in the Presence of 1 µg/mL hIL-18BP-hFc, hIL-18 reporter assay [2]: 0.37 nM
- EC50 Fold Change (+BP/-BP), hIL-18 reporter assay [2]: 1.54 fold

B4: IL-18 variant polypeptide M19 (ligand)
chain: B1 chain with M6K, F54H, D56E, R57Q, P91A
- EC50 (nM), hIL-18 reporter assay [1]: 0.66 nM
- EC50 (nM) in the Presence of 1 µg/mL hIL-18BP-hFc, hIL-18 reporter assay [2]: 0.31 nM
- EC50 Fold Change (+BP/-BP), hIL-18 reporter assay [2]: 0.47 fold

B5: IL-18 variant polypeptide M25 (ligand)
chain: B1 chain with M6R, F54L, D56T, R57T, P91R
- EC50 (nM), hIL-18 reporter assay [1]: 0.58 nM
- EC50 (nM) in the Presence of 1 µg/mL hIL-18BP-hFc, hIL-18 reporter assay [2]: 1.15 nM
- EC50 Fold Change (+BP/-BP), hIL-18 reporter assay [2]: 1.98 fold

B6: IL-18 variant polypeptide M32 (ligand)
chain: B1 chain with M6G, F54S, D56S, P91N
- EC50 (nM), hIL-18 reporter assay [1]: 5.9 nM
- EC50 (nM) in the Presence of 1 µg/mL hIL-18BP-hFc, hIL-18 reporter assay [2]: 4.1 nM
- EC50 Fold Change (+BP/-BP), hIL-18 reporter assay [2]: 0.69 fold
- EC50 (nM), PBMC assay (hIFNγ release) [3]: 0.13 nM
- EC50 (nM) in the Presence of 1 µg/mL hIL-18BP-hFc, PBMC assay (hIFNγ release) [4]: 0.1 nM
- EC50 Fold Change (+BP/-BP), PBMC assay (hIFNγ release) [4]: 0.77 fold

B7: IL-18 variant polypeptide M10 (ligand)
chain: B1 chain with M6R, F54Q, D56L, R57W, P91S
- EC50 (nM), hIL-18 reporter assay [1]: 0.29 nM
- EC50 (nM) in the Presence of 1 µg/mL hIL-18BP-hFc, hIL-18 reporter assay [2]: 0.17 nM
- EC50 Fold Change (+BP/-BP), hIL-18 reporter assay [2]: 0.59 fold

B8: IL-18 variant polypeptide M33 (ligand)
chain: B1 chain with P3E, M6H, F54R, D56T, R57H, P91N
- EC50 (nM), hIL-18 reporter assay [1]: 18.4 nM
- EC50 (nM) in the Presence of 1 µg/mL hIL-18BP-hFc, hIL-18 reporter assay [2]: 10.7 nM
- EC50 Fold Change (+BP/-BP), hIL-18 reporter assay [2]: 0.58 fold
- EC50 (nM), PBMC assay (hIFNγ release) [3]: 0.51 nM
- EC50 (nM) in the Presence of 1 µg/mL hIL-18BP-hFc, PBMC assay (hIFNγ release) [4]: 0.35 nM
- EC50 Fold Change (+BP/-BP), PBMC assay (hIFNγ release) [4]: 0.69 fold

B9: IL-18 variant polypeptide M20 (ligand)
chain: B1 chain with M6R, F54S, D56R, R57S, P91G, R104S
- EC50 (nM), hIL-18 reporter assay [1]: 2.2 nM
- EC50 (nM) in the Presence of 1 µg/mL hIL-18BP-hFc, hIL-18 reporter assay [2]: 0.5 nM
- EC50 Fold Change (+BP/-BP), hIL-18 reporter assay [2]: 0.23 fold

B10: IL-18 variant polypeptide M4 (ligand)
chain: B1 chain with M6K, F54W, D56G, R57V, P91V, R104F
- EC50 (nM), hIL-18 reporter assay [1]: 0.018 nM
- EC50 (nM) in the Presence of 1 µg/mL hIL-18BP-hFc, hIL-18 reporter assay [2]: 0.025 nM
- EC50 Fold Change (+BP/-BP), hIL-18 reporter assay [2]: 1.39 fold

B11: IL-18 variant polypeptide WM6 (ligand)
chain: B1 chain with P3D, M6K, F54D, D56Q, R57P, P91S
- EC50 (nM), hIL-18 reporter assay [1]: 0.06 nM
- EC50 (nM) in the Presence of 1 µg/mL hIL-18BP-hFc, hIL-18 reporter assay [2]: 0.74 nM
- EC50 Fold Change (+BP/-BP), hIL-18 reporter assay [2]: 12.3 fold
- EC50 (nM) in the Presence of 1 µg/mL hIL-18BP-hFc, PBMC assay (hIFNγ release) [4]: ~0.04 nM

B12: IL-18 variant polypeptide M6 (ligand)
chain: B1 chain with M6R, F54W, D56T, R57P, P91V, R104T
- EC50 (nM), hIL-18 reporter assay [1]: 0.18 nM
- EC50 (nM) in the Presence of 1 µg/mL hIL-18BP-hFc, hIL-18 reporter assay [2]: 0.14 nM
- EC50 Fold Change (+BP/-BP), hIL-18 reporter assay [2]: 0.78 fold
